Measured values from patent US8969060B2, “Modified glucose dehydrogenase” (Ikeda Food Research Co., Ltd., priority 2011, dated 2015).
Where a chain is given by its changes, count along the chain named. In names and notes the source's numbering stands.

B1: H341E: modified GLD: SEQ ID NO: 1 with substitution H341E (protein, listed as Aspergillus terreus)
chain: MLGKLSFLSALSLAVAAPLSNSTSAKYDYIVIGGGTSGLAVANRLSEDPNVNVLILEAGGSVWNNPNVTNVDGYGLAFGSDIDWQYQSVNQPYGGNLSQVLRAGKALGGTSTINGMAYTRAEDVQIDAWETIGNTGWTWKNLFPYYRKSENFTVPTKSQTSLGASYEAGAHGHEGPLDVAFTQIESNNLTTYLNRTFQGMGLPWTEDVNGGKMRGFNLYPSTVNLEEYVREDAARAYYWPYKSRPNLHVLLNTFANRIVWDGEAHDGHITASGVEITSRNGTVRVINAEKEVIVSAGALKSPAILELSGIGNPSVLDKHNIPVKVNLPTVGENLQDQVNSEMDASGNTSISGTKAVSYPDVYDVFGDEAESVAKQIRANLKQYAADTAKANGNIMKAADLERLFEVQYDLIFKGRVPIAEVLNYPGSATSVFAEFWALLPFARGSVHIGSSNPAEFPVINPNYFMLDWDAKSYVAVAKYIRRSFESYPLSSIVKESTPGYDVIPRNASEQSWKEWVFDKNYRSNFHPVGTAAMMPREIGGVVDERLNVYGTTNVRVVDASVLPFQVCGHLVSTLYAVAERAADLIKADAGRR
modifications: SIGNAL (1)..(19)
B2: H341G: modified GLD: SEQ ID NO: 1 with substitution H341G (protein, listed as Aspergillus terreus)
chain: B1 chain with E341G
modifications: SIGNAL (1)..(19)
B3: H341I: modified GLD: SEQ ID NO: 1 with substitution H341I (protein, listed as Aspergillus terreus)
chain: B1 chain with E341I
modifications: SIGNAL (1)..(19)
B4: H341F: modified GLD: SEQ ID NO: 1 with substitution H341F (protein, listed as Aspergillus terreus)
chain: B1 chain with E341F
modifications: SIGNAL (1)..(19)
B5: H341N: modified GLD: SEQ ID NO: 1 with substitution H341N (protein, listed as Aspergillus terreus)
chain: B1 chain with E341N
modifications: SIGNAL (1)..(19)
B6: H341Q: modified GLD: SEQ ID NO: 1 with substitution H341Q (protein, listed as Aspergillus terreus)
chain: B1 chain with E341Q
modifications: SIGNAL (1)..(19)
B7: H341M: modified GLD: SEQ ID NO: 1 with substitution H341M (protein, listed as Aspergillus terreus)
chain: B1 chain with E341M
modifications: SIGNAL (1)..(19)
B8: H341P: modified GLD: SEQ ID NO: 1 with substitution H341P (protein, listed as Aspergillus terreus)
chain: B1 chain with E341P
modifications: SIGNAL (1)..(19)
B9: H341K: modified GLD: SEQ ID NO: 1 with substitution H341K (protein, listed as Aspergillus terreus)
chain: B1 chain with E341K
modifications: SIGNAL (1)..(19)

What was measured:
[1] = Relative enzymatic activity of GLD (DCIP/1-m-PMS, plate reader, yeast culture supernatant) with proflavin hydrochloride present; type: biochemical; conditions: site-specific mutants, inhibitor final concentration 1 mM
Experimental: (§1) The susceptibility defined in the present specification is evaluated in terms of a relative activity that is determined in a system wherein the inhibitor coexists or not. The relative activity is derived from a relative value (%) of an enzymatic activity (a sample value) obtained with the addition of the inhibitor in the determination of the enzymatic activity described in the present specification as compared with an enzymatic activity (a blank value) as “100%” obtained without the addition of the inhibitor in the same determination. Thus, the higher the relative activity is, the less the susceptibility to the inhibitor is (or the more the susceptibility to the inhibitor is reduced), vice versa.
(§2) The enzymatic activity is determined in the following manner in Examples 3 and 6 wherein a plate reader (Japan Molecular Device Corporation, SpectraMax Plus384) is used. Thus, culture supernatant that had been diluted in advance with an appropriate magnification is added to a 96-well microplate with an amount of 100 μl per well. A reagent for the determination of the enzymatic activity comprising phosphate buffer (pH 7.0), 1.0 M D-glucose, 3 mM DCIP, 3 mM 1-m-PMS and methanol with a volume ratio of 0.1:1:0.14:0.2:0.06 is added to the 96-well microplate with an amount of 100 μl per well, and a change in the absorbance of DCIP at 600 nm (ΔABS/min) is then determined. The enzymatic activity can be calculated by conversion in proportion to a change in the absorbance of an enzyme solution for which the enzymatic activity has already been known by the above-mentioned activity determination procedure using the spectrophotometer.
(§3) In the following examples, a value of the enzymatic activity determined by the spectrometer or plate reader using the above reagent composition is considered as a blank value. On the other hand, a sample value is determined using a methanol solution comprising the inhibitor such as 1,10-phenanthroline or proflavin hydrochloride at a final concentration of 1 mM instead of the methanol. Enzymatic activity (unit/mL)=(−ΔABS/16.3)×3.0/0.05×(Dilution ratio of enzyme) [Equation 1]

[2] = Relative enzymatic activity of GLD (DCIP/1-m-PMS, plate reader, yeast culture supernatant) with 1,10-phenanthroline present; type: biochemical; conditions: site-specific mutants, inhibitor final concentration 1 mM
Experimental: as §1, §2, §3
Into each well of a 96-well microplate (manufactured by Nunc, Inc.), a YPD medium containing 125 μL of 1.0% (w/v) yeast extract (manufactured by BD), 2.0% (w/v) tryptone (manufactured by BD), 2.0% (w/v) glucose (manufactured by Wako Pure Chemical Industries, Ltd.) was dispensed, and the transformant colonies obtained in Example 2 were inoculated thereinto one by one.
After shaking culture at 30° C. and 1,000 rpm for 24 hours, the culture mixture was centrifuged and the supernatant was collected.
According to the above-mentioned method for the determination of enzymatic activity, a blank value and a sample value were determined using a plate reader, and the relative activity (%) was obtained by dividing the sample value by the blank value.

| Molecule | Relative Activity [%] Proflavin hydrochloride [1] | Relative Activity [%] 1,10-Phenanthroline [2] |
| --- | --- | --- |
| B1 | 25.2% | 88.4% |
| B2 | 76.9% | 93.8% |
| B3 | 64.4% | 97.4% |
| B4 | 67.5% | 97.1% |
| B5 | 81.5% | 93.3% |
| B6 | 68.1% | 97.5% |
| B7 | 71.4% | 95.4% |
| B8 | 43.2% | 88.3% |
| B9 | 61.3% | 99.2% |
